This is an account of results in patent US20100280227A1.

What all share (assay): shotgun alanine scan of phage-displayed BR3; F against wild type
The target in experiment [1] is human BR3 displayed on phage, R30 alanine-scan mutant (human) (UniProt Q96RJ3).
In experiment [2] the target is human BR3 displayed on phage, G36 alanine-scan mutant (human) (UniProt Q96RJ3).
The target in experiment [3] is human BR3 displayed on phage, mutated at A22 in the alanine scan (human) (UniProt Q96RJ3).

B1: V3-1m (antibody, mouse IgG2a, V domains shown)
VH: EVQLVESGGGLVQPGGSLRLSCAASGFTISSNSIHWVRQAPGKGLEWVAWITPSDGNTDYADSVKGRFTISADTSKNTAYLQMNSLRAEDTAVYYCARRVCYNRLGVCAGGMDYWGQGTLVTVSS
VL: DIQMTQSPSSLSASVGDRVTITCRASQDVSTAVAWYQQKPGKAPKLLIYSASFLYSGVPSRFSGSGSGTDFTLTISSLQPEDFATYYCQQSRITPPTFGQGTKVEIKR
On to B1, for which, in experiment [1], the F value came to 20.

B2: murine monoclonal antibody 2.1 (antibody, V domains shown)
VH: EVQLQESGPSLVKPSQTLSLTCSVTGDSITRGYWNWIRKFPGNKLEFMGYINYSGTTYYNPSLKSRISITRDTSKNQYYLQLNSVTTEDTATYYCATPHTYGAMDYWGQGTTLTVSA
VL: DIVLTQSPVSLAVSLGQRATISCRASESVDDYGISFMHWYQQKPGQPPKLLIYRASDLESGIPARFSGSGSGTDFTLTINPVETDDVAIYYCQQTSKDPWTFGGGT
In experiment [2], B2 showed a F value of 14.

B3: murine monoclonal antibody 11G9 (antibody, V domains shown)
VH: DVQLQESGPSLVKPSQTLSLTCSVTGDSITSGYWNWIRKFPGNKLEYMGYISYSGSTYYNPSLKSRISITRDTSKNQFYLQLLSVTTEDTATYYCAGLDGLYWYFDVWGAGTLVTVSS
VL: DIVMTQTPLSLPVSLGDQASISCRSSQSLVHSNGNTYLHWYLQKPGQSPKLLIYKVSNRFSGVPDRFSGSGSGTDFTLKISRVEAEDLGVYFCSQSTHVPPFTFGSGT
B3 showed a F value in experiment [3] of 45.
